Measured values taken from publication PMC10397247.

Columns and labels:
4H930-AA = target: T1, 4H930-AA; experiment: two-hybrid library CCmax; details: mean of both orientations;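 further: natural log of median RNA to DNA barcode read ratio; higher means stronger binding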
T1 chain: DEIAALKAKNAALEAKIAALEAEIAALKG

4H570-AA = target: T2, 4H570-AA; experiment: two-hybrid library CCmax; details: mean of both orientations;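 further: natural log of median RNA to DNA barcode read ratio; higher means stronger binding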
T2 chain: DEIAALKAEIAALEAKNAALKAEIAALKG

4H710-AA = target: T3, 4H710-AA; experiment: two-hybrid library CCmax; details: mean of both orientations;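 further: natural log of median RNA to DNA barcode read ratio; higher means stronger binding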
T3 chain: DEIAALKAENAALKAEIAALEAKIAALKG

4H458-AA = target: T4, 4H458-AA; experiment: two-hybrid library CCmax; details: mean of both orientations;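 further: natural log of median RNA to DNA barcode read ratio; higher means stronger binding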
T4 chain: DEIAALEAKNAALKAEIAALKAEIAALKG

4H891-AA = target: T5, 4H891-AA; experiment: two-hybrid library CCmax; details: mean of both orientations
T5 chain: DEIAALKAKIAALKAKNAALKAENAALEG

4H850-AA = target: T6, 4H850-AA; experiment: two-hybrid library CCmax; details: mean of both orientations
T6 chain: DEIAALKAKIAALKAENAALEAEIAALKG

4H94-AA = target: T7, 4H94-AA; experiment: two-hybrid library CCmax; details: mean of both orientations
T7 chain: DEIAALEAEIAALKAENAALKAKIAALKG

4H982-AA = target: T8, 4H982-AA; experiment: two-hybrid library CCmax; details: mean of both orientations
T8 chain: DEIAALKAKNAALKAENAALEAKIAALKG

P5-AA-1HAA-R = target: T9, P5-AA-1HAA-R; experiment: two-hybrid library CCmax
T9 chain: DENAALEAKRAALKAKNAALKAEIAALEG

4H536-AA = target: T10, 4H536-AA; experiment: two-hybrid library CCmax; details: mean of both orientations
T10 chain: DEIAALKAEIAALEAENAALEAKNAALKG

4H3865-AA = target: T11, 4H3865-AA; experiment: two-hybrid library CCmax
T11 chain: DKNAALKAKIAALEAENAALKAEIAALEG

4H797-AA = target: T12, 4H797-AA; experiment: two-hybrid library CCmax; details: mean of both orientations
T12 chain: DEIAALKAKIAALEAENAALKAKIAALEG

4H629-AA = target: T13, 4H629-AA; experiment: two-hybrid library CCmax; details: mean of both orientations
T13 chain: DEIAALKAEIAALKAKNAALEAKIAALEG

4H485-AA = target: T14, 4H485-AA; experiment: two-hybrid library CCmax; details: mean of both orientations
T14 chain: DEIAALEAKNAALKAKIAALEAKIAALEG

4H697-AA = target: T15, 4H697-AA; experiment: two-hybrid library CCmax
T15 chain: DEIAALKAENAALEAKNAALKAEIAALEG

4H909-AA = target: T16, 4H909-AA; experiment: two-hybrid library CCmax; details: mean of both orientations
T16 chain: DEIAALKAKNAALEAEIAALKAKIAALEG

4H745-AA = target: T17, 4H745-AA; experiment: two-hybrid library CCmax; details: mean of both orientations
T17 chain: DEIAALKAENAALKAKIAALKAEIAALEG

O16-bN = target: T18, O16-bN; experiment: two-hybrid library CCNG1
T18 chain: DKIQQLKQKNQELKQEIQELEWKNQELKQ

O5-bN = target: T19, O5-bN; experiment: two-hybrid library CCNG1
T19 chain: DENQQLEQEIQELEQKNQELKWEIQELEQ

O2-bN = target: T20, O2-bN; experiment: two-hybrid library CCNG1
T20 chain: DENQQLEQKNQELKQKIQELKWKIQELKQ

O7-bN = target: T21, O7-bN; experiment: two-hybrid library CCNG1
T21 chain: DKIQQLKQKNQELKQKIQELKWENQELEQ

O11-bN = target: T22, O11-bN; experiment: two-hybrid library CCNG1
T22 chain: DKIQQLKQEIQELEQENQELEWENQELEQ

O10-bN = target: T23, O10-bN; experiment: two-hybrid library CCNG1; details: mean of both orientations
T23 chain: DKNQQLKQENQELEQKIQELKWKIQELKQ

O15-bN = target: T24, O15-bN; experiment: two-hybrid library CCNG1
T24 chain: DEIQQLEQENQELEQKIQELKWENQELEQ

O4-bN = target: T25, O4-bN; experiment: two-hybrid library CCNG1
T25 chain: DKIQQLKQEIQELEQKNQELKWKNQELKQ

O3-bN = target: T26, O3-bN; experiment: two-hybrid library CCNG1
T26 chain: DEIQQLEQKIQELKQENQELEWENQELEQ

O13-bN = target: T27, O13-bN; experiment: two-hybrid library CCNG1
T27 chain: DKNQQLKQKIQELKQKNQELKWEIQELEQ

O14-bN = target: T28, O14-bN; experiment: two-hybrid library CCNG1
T28 chain: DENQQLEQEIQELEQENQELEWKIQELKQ

O9-bN = target: T29, O9-bN; experiment: two-hybrid library CCNG1; details: mean of both orientations
T29 chain: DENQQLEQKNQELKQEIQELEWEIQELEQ

O12-bN = target: T30, O12-bN; experiment: two-hybrid library CCNG1
T30 chain: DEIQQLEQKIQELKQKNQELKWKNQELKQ

O8-bN = target: T31, O8-bN; experiment: two-hybrid library CCNG1
T31 chain: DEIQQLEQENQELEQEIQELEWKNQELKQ

O6-bN = target: T32, O6-bN; experiment: two-hybrid library CCNG1
T32 chain: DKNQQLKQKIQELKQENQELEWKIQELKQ

Core_NIIN-es_KEKK = target: T33, Core_NIIN-es_KEKK; experiment: two-hybrid library CCmax; details: mean of both orientations
T33 chain: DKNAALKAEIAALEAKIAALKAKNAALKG

B1: 4H3865-AA (peptide)
chain: DKNAALKAKIAALEAENAALKAEIAALEG
Work on B1 yielded an interaction score (4H930-AA) of -1.43, an interaction score (4H570-AA) of 0.484 and an interaction score (4H710-AA) of -1.84. For the same binder, the interaction score (4H458-AA) was -1.15, the interaction score (4H891-AA) was -1.81 and the interaction score (4H850-AA) was 1.18. The interaction score (4H94-AA) was 1.56, the interaction score (4H982-AA) was -0.79 and the interaction score (P5-AA-1HAA-R) was -0.395. The interaction score (4H536-AA) was -0.909, the interaction score (4H3865-AA) was 0.444 and the interaction score (4H797-AA) was 1.12. For the same binder, the interaction score (4H629-AA) was -1.62, the interaction score (4H485-AA) was -1.27 and the interaction score (4H697-AA) was -1.81. For the same binder, the interaction score (4H909-AA) was -1.04 and the interaction score (4H745-AA) was -0.83.

B2: O10-bN (peptide)
chain: DKNQQLKQENQELEQKIQELKWKIQELKQ
B2 showed an interaction score (O16-bN) of -0.104, an interaction score (O5-bN) of 0.186 and an interaction score (O2-bN) of 0.523. The interaction score (O7-bN) was 0.28, the interaction score (O11-bN) was 0.648 and the interaction score (O10-bN) was -0.625. For the same binder, the interaction score (O15-bN) was 0.569, the interaction score (O4-bN) was -0.783 and the interaction score (O3-bN) was 0.129. For the same binder, the interaction score (O13-bN) was -0.398, the interaction score (O14-bN) was -1.59 and the interaction score (O9-bN) was 1.38. It also gave an interaction score (O12-bN) of -1.87, an interaction score (O8-bN) of -0.514 and an interaction score (O6-bN) of -0.552.

B3: Core_NIIN-es_EKEE (peptide)
chain: DENAALEAKIAALKAEIAALEAENAALEG
For B3, the interaction score (Core_NIIN-es_KEKK) was 1.84.
